Experimental findings from patent publication US20220089705A1 (Harvard, published 2022) are described below.

In general, Kd refers to the free concentration of one partner at which half of the binding sites on the other are occupied at equilibrium, for simple one-to-one binding. The low end stands for higher affinity, the high end for lower affinity.

Test [1] deals with T1, mouse aP2 (fatty acid-binding protein, adipocyte, FABP4/aP2) (mouse, UniProt P04117 1-132).
T1 construct: Lipid-loaded and de-lipidated preparations are the same polypeptide and are told apart under assay; also called mouse FABP4; murine aP2
T1 sequence: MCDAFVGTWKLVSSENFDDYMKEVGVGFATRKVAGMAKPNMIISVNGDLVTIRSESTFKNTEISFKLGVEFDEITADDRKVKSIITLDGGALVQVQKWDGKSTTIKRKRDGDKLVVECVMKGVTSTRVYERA
Briefly: method not stated in the sentence (FIG. 31); average binding affinity; PB1172, mouse aP2.

Test [2] has as its target T1, mouse aP2 (fatty acid-binding protein, …). Description: assay not given; KD (M) column under 'Mouse', second of two rows (also printed as 4.99 under KD (µM)).
Test [3] has as its target T2, human aP2 (fatty acid-binding protein, adipocyte, FABP4/aP2) (human, UniProt P15090 1-132, Biotinylated with Sulfo-NHS-LC-Biotin in the Octet assay. Refolded with palmitic acid after delipidation. The letters carry neither.).
T2 construct: also called haP2; human FABP4
Briefly: assay not given; KD (M) column under 'Human', first of two rows (also printed as 5.62 under KD (µM)).

Test [4] concerns the target T2, human aP2 (fatty acid-binding protein, …). Briefly: method not stated in the sentence (FIG. 31); average binding affinity; PB1172, human aP2.
Test [5] shares this target. Description: assay not given; KD (M) column under 'Human', second of two rows (also printed as 6.44 under KD (µM)).
For test [6], the target named is T1, mouse aP2 (fatty acid-binding protein, …). Description: assay not given; KD (M) column under 'Mouse', first of two rows (also printed as 4.14 under KD (µM)).
In test [7] the target is T3, recombinant human FABP5/Mal1 (human, UniProt Q01469 1-135).
T3 construct: Bought; Biotinylated and loaded on streptavidin biosensors; also called hFABP5/hMal1; Mal1/FABP5
Description: Octet RED384: biotinylated human FABP5/Mal1 on streptavidin biosensors, maximal association signal minus background. How it is done: The recombinant human proteins aP2 (generated at UCB in E. coli (see method below)), hFABP3 (Sino Biological Inc.) and hFABP5/hMal1 (Sino Biological Inc.) were biotinylated in a 5-fold molar excess of EZ-Link® Sulfo-NHS-LC-Biotin (Thermo Fisher Scientific) and purified from unbound biotin using a Zeba desalting column (Thermo Fisher Scientific). All binding studies were performed at 25° C. using a ForteBio Octet RED384 system (Pall ForteBio Corp.). After a 120 s baseline step in PBS containing 0.05% Tween 20, pH7.4 (PBS-T), Dip and Read™ streptavidin (SA) biosensors (Pall ForteBio Corp.) were loaded with biotinylated recombinant haP2, hFABP3 or hFABP5/hMal1 at 60 nM for 90 s. After a 60 s stabilisation step in PBS-T, each FABP-loaded biosensor was transferred to a sample of monoclonal antibody at 800 nM and association was measured for 5 min. Biosensors were then transferred back to PBS-T for 5 min to measure dissociation. Non-specific binding of antibodies was monitored using unloaded biosensor tips. Maximal association binding i.e., once signal had plateaued, minus background binding, was plotted for each antibody/FABP combination.
(BLI is a label-free optical method that tracks binding on a fibre tip over time.)

For test [8], the target named is T2, human aP2 (fatty acid-binding protein, …). Briefly: SPR, Biacore T200: antibody captured on immobilized anti-mouse IgG Fc, aP2 titrated 25 to 3.13 nM, 1:1 binding model. How it is done: (§1) The affinity of anti-aP2 binding to aP2 (recombinantly generated in E. coli as described below) was determined by biomolecular interaction analysis, using a Biacore T200 system (GE Healthcare). Affinipure F(ab′)2 fragment goat anti-mouse IgG, Fc fragment specific (Jackson ImmunoResearch Lab, Inc.) in 10 mM NaAc, pH 5 buffer was immobilized on a CMS Sensor Chip via amine coupling chemistry to a capture level between 4500-6000 response units (RU) using HBS-EP+(GE Healthcare) as the running buffer. Anti-aP2 IgG was diluted to between 1-10 μg/ml in running buffer. A 60 s injection of anti-aP2 IgG at 10 μl/min was used for capture by the immobilized anti-mouse IgG, Fc then aP2 was titrated from 25 nM to 3.13 nM over the captured anti-aP2 for 180 s at 30 μl/min followed by 300 s dissociation. The surface was regenerated by 2×60 s 40 mM HCl and 1×30 s 5 mM NaOH at 10 μl/min. The data were analyzed using Biacore T200 evaluation software (version 1.0) using the 1:1 binding model with local Rmax. […] The surface was regenerated by 1×60 s 40 mM HCl, 1×30 s 5 mM NaOH and 1×60 s 40 mM HCl at 10 μl/min. Steady state fitting was used to determine affinity values.
(In general: In SPR one partner is held on a chip, and binding of the other changes the refractive index at the surface.)

Test [9] concerns the target T1, mouse aP2 (fatty acid-binding protein, …). Briefly: method not stated in the sentence (FIG. 31); average binding affinity; PB1171, mouse aP2.
Test [10] has the same target. Description: assay not given; KD (M) column under 'Mouse', first of two rows (also printed as 5.53 under KD (µM)).
Test [11] has the same target. Description: assay not given; KD (M) column under 'Mouse', second of two rows (also printed as 4.71 under KD (µM)).
Test [12] addresses T2, human aP2 (fatty acid-binding protein, …). Description: SPR, Biacore T200: antibody captured on immobilized anti-mouse IgG Fc, aP2 titrated 40 to 0.625 µM, steady state fit. The protocol:
as §1

T3 sequence (Q01469 whole entry): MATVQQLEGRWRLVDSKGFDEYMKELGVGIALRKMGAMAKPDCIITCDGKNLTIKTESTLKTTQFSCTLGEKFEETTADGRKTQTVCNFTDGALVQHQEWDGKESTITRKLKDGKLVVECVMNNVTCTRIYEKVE

B1: PB1172 (H3 gL11/gH19), reduced-affinity variant of H3 (antibody, mouse IgG1, V domains shown)
VH: QVQLQQPGAELVKPGASVKLSCKASGYTFTSNAITWVKQRPGQGLEWIGDISPGSGSTTNNEKFKSKATLTVDTSSSTAYMQLSSLTSEDSAVYYCARLRGYYDYFDFWGQGTTLTVSS
VL: EVVLTQSPALMAASPGEKVTITCSVSSSISSSNLHWYQQKSETSPKPWIYGTSNLASGVPVRFSGSGSGTSYSLTISSMEAEDAATYYCQQASHYPLTFGAGTKLELK
notes: Heavy chain W33A, Y52S; light chain W91A, relative to H3; also called 5251.mIgG1168; APP5168/PB1172
B1: the Kd in [1] worked out at 4.57 µM; in test [2], 4.99 µM; in test [3], 5.62 µM; in test [4], 6.03 µM; in test [5], 6.44 µM; in test [6], 4.14 µM.

B2: H3, mouse anti-aP2 monoclonal antibody (H3 gL1/gH1) (antibody, V domains shown)
VH: QVQLQQPGAELVKPGASVKLSCKASGYTFTSNWITWVKQRPGQGLEWIGDIYPGSGSTTNNEKFKSKATLTVDTSSSTAYMQLSSLTSEDSAVYYCARLRGYYDYFDFWGQGTTLTVSS
VL: EVVLTQSPALMAASPGEKVTITCSVSSSISSSNLHWYQQKSETSPKPWIYGTSNLASGVPVRFSGSGSGTSYSLTISSMEAEDAATYYCQQWSHYPLTFGAGTKLELK
notes: Mouse IgG; also called wild-type parent H3
Take B2: the binding result in [7] is reported as “no binding”. Further, the Kd in [8] was 0.0011 µM.

B3: PB1171 (H3 gL1/gH20), reduced-affinity variant of H3 (antibody, mouse IgG1, V domains shown)
VH: QVQLQQPGAELVKPGASVKLSCKASGYTFTSNAITWVKQRPGQGLEWIGDISPGSGSTTNNEKFKSKATLTVDTSSSTAYMQLSSLTSEDSAVYYCARLRGFYDYFDFWGQGTTLTVSS
VL: EVVLTQSPALMAASPGEKVTITCSVSSSISSSNLHWYQQKSETSPKPWIYGTSNLASGVPVRFSGSGSGTSYSLTISSMEAEDAATYYCQQWSHYPLTFGAGTKLELK
notes: Heavy chain W33A, Y52S, Y98F relative to H3; also called 5252.mIgG1.169; APP5169/PB1171
As to B3, the Kd in [9] was 5.12 µM; in test [10], 5.53 µM; in test [11], 4.71 µM.

B4: CA33, rabbit-mouse hybrid anti-aP2 monoclonal antibody (Rabbit Ab 909) (antibody, V domains shown)
VH: QSVEESGGRLVTPGTPLTLTCTVSGFSLSTYYMSWVRQAPGKGLEWIGIIYPSGSTYCASWAKGRFTISKASTTVDLKITSPTTEDTATYFCARPDNDGTSGYLSGFGLWGQGTLVTVSS
VL: DVVMTQTPASVSEPVGGTVTIKCQASEDISRYLVWYQQKPGQPPKRLIYKASTLASGVPSRFKGSGSGTDFTLTISDLECDDAATYYCQCTYGTYAGSFFYSFGGGTEVVVE
notes: also called Rabbit Antibody 909
Take B4: the binding result in [7] is “no binding”. In test [12], this molecule yielded a Kd of 2.83 µM.
